This is an account of results in US6531296B1, “Nuclear tyrosine kinase Rak” (The University of North Carolina at Chapel Hill, priority 1995, dated 2003).

Substitutions are numbered along the chain they refer to.

For assay [1], the target named is T1, RbABC (Rb amino acids 379-928, A/B pocket and carboxy-terminus) (Homo sapiens, UniProt P06400).
T1 construct: Rb fusion proteins encoding amino acids 379-928 (RbABC); made in house; host or cells: pGEX-4T plasmid
T1 sequence (P06400 379-928): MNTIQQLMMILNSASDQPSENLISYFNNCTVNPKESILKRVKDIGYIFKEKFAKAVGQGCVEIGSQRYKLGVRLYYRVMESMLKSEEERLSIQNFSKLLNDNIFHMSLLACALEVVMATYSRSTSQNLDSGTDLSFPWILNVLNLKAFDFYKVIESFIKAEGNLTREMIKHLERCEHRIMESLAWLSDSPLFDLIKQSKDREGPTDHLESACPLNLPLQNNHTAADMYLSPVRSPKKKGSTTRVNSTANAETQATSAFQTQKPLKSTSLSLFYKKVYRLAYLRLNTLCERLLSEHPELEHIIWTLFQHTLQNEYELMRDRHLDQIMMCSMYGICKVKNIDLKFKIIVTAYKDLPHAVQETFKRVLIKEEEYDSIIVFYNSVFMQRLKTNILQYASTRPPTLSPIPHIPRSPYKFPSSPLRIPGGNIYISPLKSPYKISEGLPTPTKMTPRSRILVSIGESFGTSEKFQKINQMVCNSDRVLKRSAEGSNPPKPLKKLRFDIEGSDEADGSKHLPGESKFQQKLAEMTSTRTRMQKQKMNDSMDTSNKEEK
In words: Rb in vitro binding assay, GST-RbABC. Conditions: for Rb binding of Rak deletion forms: Rb fusion protein not specified. The method, then:
(§1) Affinity Precipitations. DNA fragments encoding the amino terminal region of Rak were prepared using the polymerase chain reaction with Pyrococcus furiosus DNA polymerase (Stratagene), and cloned into the pGEX-4T plasmid (Pharmacia). Rb fusion proteins encoding amino acids 379-928 (RbABC, containing the A/B pocket region and the COOH-terminal domain) and 780-928 (RbC for COOH terminal domain only), were prepared similarly. The GST fusion proteins were induced and purified according to the manufacturer's instructions, and were analyzed by SDS-PAGE to ensure that an equal amount of protein was used for the affinity precipitation procedure.
The same procedure was followed for Rb in vitro binding assays, except that the Rb-GST fusion proteins were incubated in the in vitro translated forms of Rak in NP-40 buffer containing 0.5% fraction V bovine serum albumin (Boehringer Mannheim). After three washes with the same buffer, bound proteins were analyzed by SDS-PAGE and detected by autoradiography. Rak was in vitro translated using the TnT-coupled transcription/translation system (Promega) with 2 ug of the pAlt-Rak plasmid. The Rak (1-152) construct was prepared by digesting the pAlt-Rak plasmid with EcoRI to obtain the 5′ EcoRI fragment of Rak.
An in vitro binding reaction was then used to further identify the essential components for the Rak-Rb interaction. In vitro translated Rak was incubated with two Rb-GST fusion proteins, where one encoded amino acids 379-928, spanning the A/B pocket and carboxy-terminus (RbABC), while the other fusion protein encoded amino acids 780-928, and represented only the carboxy-terminus (RbC). […] As a control, the Src protein was in vitro translated and subjected to the same binding reaction, and no binding of Src to any portion of Rb was detected (data not shown).

Assay [2] has as its target T2, RbC (Rb amino acids 780-928, carboxy-terminus) (Homo sapiens, UniProt P06400).
T2 construct: the other fusion protein encoded amino acids 780-928; made in house; host or cells: pGEX-4T plasmid
T2 sequence (P06400 780-928): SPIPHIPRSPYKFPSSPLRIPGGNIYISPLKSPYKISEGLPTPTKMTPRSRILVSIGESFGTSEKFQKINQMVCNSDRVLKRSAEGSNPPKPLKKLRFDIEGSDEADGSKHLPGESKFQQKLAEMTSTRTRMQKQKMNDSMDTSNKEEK
In words: Rb in vitro binding assay, GST-RbC. To be noted: in vitro translated protein. The procedure: as §1
The same procedure was followed for Rb in vitro binding assays, except that the Rb-GST fusion proteins were incubated in the in vitro translated forms of Rak in NP-40 buffer containing 0.5% fraction V bovine serum albumin (Boehringer Mannheim). After three washes with the same buffer, bound proteins were analyzed by SDS-PAGE and detected by autoradiography. […]
An in vitro binding reaction was then used to further identify the essential components for the Rak-Rb interaction. […] As a control, the Src protein was in vitro translated and subjected to the same binding reaction, and no binding of Src to any portion of Rb was detected (data not shown).

Another assay deals with CSK (p50csk). In words: In vitro kinase assay: phosphorylation of Rak carboxy-terminal peptides by CSK. In kind it is biochemical. Conditions: relative to wild-type peptide for the mutants. The procedure:
Peptide, Preparation for Phosphorylation. Initially, the OAg was tested for phosphorylation by CSK in an in vitro kinase reaction and was phosphorylated. To further assess which tyrosine was phosphorylated, each of the four tyrosines in the substrate peptide were mutated to phenylalanine by the double-stranded, site-directed mutagenesis method (Deng and Nickoloff. Site-directed mutagenesis of virtually any plasmid by eliminating a unique site. Anal. Biochem., 200:81-88 (1992)). The plasmid was denatured by heating to 100° C. for 5 min and then annealed to a mutagenic primer and a second primer converting an Af/AII site on the plasmid to a Bg/II site. The mutagenic primers for the four tyrosines were: Y45Uf, 5′-[…]-3′ (SEQ ID NO:9); Y163F, 5′-[…]-3′ (SEQ ID NO:10); Y490F, 5′-TGAAGAC-TTTTTTGAAACAG-3′ (SEQ ID NO:11); and Y497F, 5′-[…]-3′ (SEQ ID NO:12).
Purified μ50^csk and Enzyme Assays. p50^csk was produced in S/9 cells from a Baculovirus vector containing the full-length csk cDNA (Okada et al., J. Biol. Chem; 264:20886-20893(1989)), purified according to Murphy et al. (Mol. Cell. Biol., 13:5290-5300 (1993), and mixed with the different peptides of Rak. These peptides correspond to the last 62 amino acids of the kinase, containing four tyrosine residues (Y450, Y463, Y490, and […]), and mutant peptides where each of the four tyrosines was […]. The phosphorylation of the native peptide was compared to the that of the mutant peptides. For the in vitro kinase assay, different amounts of p50^csk were mixed with different amount of the peptides in a reaction buffer (10 mM HEPES (pH 7.4) 10 mM MnCl21. Four μg bovine serum albumin were added to the 20-μl mixture, and the reaction was initiated with the addition of AIP to 1 μm and 10 μCl of 1 γ-^32P)ATP (3000 Ci/mmol; Amersham). Tubes were incubated at 30° C. for 15 min, and the reaction was stopped by the addition of SDS-PAGE sample buffer. The samples were boiled and analyzed on 15% SDS-PAGE gels, which were fixed, stained, and exposed to film at […].
The Carboxy Terminus of Rak Is Phosphorylated by CSK. Since CSK phosphorylates the carboxy terminal tyrosines of several other Src-related kinases, the ability of CSK to phosphorylate a recombinant carboxy-terminal peptide of Rak was analyzed. […] Since this peptide contained four tyrosines at positions 450, 463, 490, and 497, each tyrosine was individually mutated to phenylalanine and then the peptides were assayed for phosphorylation by CSK. […] Indeed, this residue corresponds to the CSK phosphorylation site for the other Src family members with regard to its localization in regard to the kinase domain, although the sequence context of this tyrosine differs from that of the other Src-like kinases.

B1: Rak (amino acids 1-152): in vitro translated amino-terminal fragment of Rak with unique amino-terminal region and SH3 domain (protein, UniProt P42685 1-152, looked up, fragment)
chain: MSNICQRLWEYLEPYLPCLSTEADKSTVIENPGALCSPQSQRHGHYFVALFDYQARTAEDLSFRAGDKLQVLDTLHEGWWFARHLEKRRDGSSQQLQGYIPSNYVAEDRSLQAEPWFFGAIGRSDAEKQLLYSENKTGSFLIRESESQKGEF
In the case of B1, the “less efficiency of binding to RbABC fusion protein” value in assay [1] (compared with full-length Rak) is given as “approximately 30%”. Besides, the “binding to RbC protein” value in assay [2] is recorded as “no longer detectable”.

B2: Rak with amino acids 1-110 deleted: Rak lacking the unique N-terminal region and the SH3 domain (protein, UniProt P42685 111-505, looked up, fragment)
chain: LQAEPWFFGAIGRSDAEKQLLYSENKTGSFLIRESESQKGEFSLSVLDGAVVKHYRIKRLDEGGFFLTRRRIFSTLNEFVSHYTKTSDGLCVKLGKPCLKIQVPAPFDLSYKTVDQWEIDRNSIQLLKRLGSGQFGEVWEGLWNNTTPVAVKTLKPGSMDPNDFLREAQIMKNLRHPKLIQLYAVCTLEDPIYIITELMRHGSLQEYLQNDTGSKIHLTQQVDMAAQVASGMAYLESRNYIHRDLAARNVLVGEHNIYKVADFGLARVFKVDNEDIYESRHEIKLPVKWTAPEAIRSNKFSIKSDVWSFGILLYEIITYGKMPYSGMTGAQVIQMLAQNYRLPQPSNCPQQFYNIMLECWNAEPKERPTFETLRWKLEDYFETDSSYSDANNFIR
With B2, in assay [1], the “Rb binding of Rak deletion forms” value is on record as “minimally detectable”.

B3: full-length Rak: in vitro translated full-length Rak protein (SEQ ID NO:2) (protein)
chain: MSNICQRLWEYLEPYLPCLSTEADKSTVIENPGALCSPQSQRHGHYFVALFDYHAPTAEELSFRAGDKLQVLDTLHEGWWFARHLEKRRDGSSQQLQGYIPSNYVAEDRSLQAEAWFFGAIRRSDAEKQLLYSENKTGSFLIRESESQKGEFSLSVLDGAVVKHYRIKRLDEGGFFLTRRRIFSTLNEFVSHYTKTSDGLCVKLGKPCLKIQVPAPFDLSYKTVDQWEIDRNSIQLLKRLGSGQFGEVWEGLWNNTTPVAVKTLKPGSMDPNDFLREAQIMKNLRHPKLIQLYAVCTLEDPIYIITELMRHGSLQEYLQNDTGSKIHLTQQVDMAAQVASGMAYLESRNYIHRDLAARNVLVGEHNIYKVADFGLARVFKVDNEDIYESRHEIKLPVKWTAPEAIRSNKFSIKSDVWSFGILLYEIITYGKMPYSGMTGAQVIQMLAQNYRLPQPSNCPQQFYNIMLECWNAEPKERPTFETLRWKLEDYFETDSSYSDANNFIR
Take B3: in assay [1] (in vitro translated protein, SDS-PAGE and autoradiography), the “binding to RbABC fusion protein” value is “bound efficiently”. In addition, the “binding to RbC protein, fold less than to RbABC” value in assay [2] is “approximately 5 fold”.

B4: wild-type peptide: hexahistidine fusion protein containing the 62 carboxy-terminal amino acids of Rak (protein, UniProt P42685 444-505, looked up, fragment)
chain: QMLAQNYRLPQPSNCPQQFYNIMLECWNAEPKERPTFETLRWKLEDYFETDSSYSDANNFIR
modifications: hexahistidine tag
notes: hexahistidine fusion protein containing the 62 carboxy-terminal amino acids of Rak
For B4, the “phosphorylation by CSK” value is given as “readily phosphorylated” with CSK (p50csk) and “phosphorylated” with CSK (p50csk) (listed as OAg).

B5: mutant at position 450: 62-amino-acid carboxy-terminal Rak peptide with tyrosine 450 mutated to phenylalanine (protein, UniProt P42685 444-505, looked up, variant Y450F)
chain: B4 chain with Y7F
modifications: C-terminal 62 residues His tag
notes: 62-amino-acid carboxy-terminal Rak peptide with tyrosine 450 mutated to phenylalanine
In the case of B5, the “phosphorylation by CSK” value in the assay with CSK (p50csk) was “about one-half”.

B6: mutant at position 490: 62-amino-acid carboxy-terminal Rak peptide with tyrosine 490 mutated to phenylalanine (protein, UniProt P42685 444-505, looked up, variant Y490F)
chain: B4 chain with Y47F
modifications: C-terminal 62 residues His tag
notes: 62-amino-acid carboxy-terminal Rak peptide with tyrosine 490 mutated to phenylalanine
For B6, in the assay with CSK (p50csk), the “phosphorylation by CSK” value is “about one-half”.

B7: 497 mutant: 62-amino-acid carboxy-terminal Rak peptide with tyrosine 497 mutated to phenylalanine (protein, UniProt P42685 444-505, looked up, variant Y497F)
chain: B4 chain with Y54F
modifications: C-terminal 62 residues His tag
notes: 62-amino-acid carboxy-terminal Rak peptide with tyrosine 497 mutated to phenylalanine
Regarding B7, the “phosphorylation by CSK” value with CSK (p50csk) is “barely detectable”.

B8: Rak with amino acids 1-46 deleted: Rak lacking the unique N-terminal region (LPCLSTE sequence removed) (protein, UniProt P42685 47-505, looked up, fragment)
chain: FVALFDYQARTAEDLSFRAGDKLQVLDTLHEGWWFARHLEKRRDGSSQQLQGYIPSNYVAEDRSLQAEPWFFGAIGRSDAEKQLLYSENKTGSFLIRESESQKGEFSLSVLDGAVVKHYRIKRLDEGGFFLTRRRIFSTLNEFVSHYTKTSDGLCVKLGKPCLKIQVPAPFDLSYKTVDQWEIDRNSIQLLKRLGSGQFGEVWEGLWNNTTPVAVKTLKPGSMDPNDFLREAQIMKNLRHPKLIQLYAVCTLEDPIYIITELMRHGSLQEYLQNDTGSKIHLTQQVDMAAQVASGMAYLESRNYIHRDLAARNVLVGEHNIYKVADFGLARVFKVDNEDIYESRHEIKLPVKWTAPEAIRSNKFSIKSDVWSFGILLYEIITYGKMPYSGMTGAQVIQMLAQNYRLPQPSNCPQQFYNIMLECWNAEPKERPTFETLRWKLEDYFETDSSYSDANNFIR
In the case of B8, the “Rb binding of Rak deletion forms” value in assay [1] is “no change in Rb binding”.
